Source: the DeepSol protein solubility set

Test: soluble on expression in E. coli; label from the status in PepcDB or PDB records

| Sequence | soluble on expression in E. coli |
| --- | --- |
| MSLKPWLITPERLTSEQIGLLDHFFDRGLERLHLRLPSAGEEDYSQVIEAVAACYRRRIVVHDHPRLVGRYGLCGLHLPERVWKGMTDRPQLPDGCTVSASCHAIEDIESFPFRLDYCFLSPVFDSLCKVGYAGRFSPDSLGDRLQRLHLPVVALGGITPDRLPQLRRAGFASAAALGYVWLVEGRELMRWQELCTPAVICVGGVDPSAGAGITADVRTAENMGVRAYTVATAITFQGSGSYRGERWVDSADIIRQIESLSAEMEPAVAKIGLIRDSDTLSLVVDCLKKVFPSIRIVWDPVLRASADSSAGQADRFNLEDITALSRIDFITPNLPEARHLLGCEPDDETLLDFYRRSGVGLVLKGGHAGESVVTDRIVYDGRCEALRLLRGGTGKHGTGCAHSTAFAAALALEQEPFTAAGMAQLYVSRLRERASGLLAMHKDLPVDPVVRLMSEIDLQFITHRQPDLSELEEAEAVCRIGVRWVQLRMKEASDEEMLHTACAVKAVCRHHGALFVVNDRVEIARQVDADGVHLGKEDMAIVEARRILGSNKIIGRTCNTMEDVRRAYAEGADYVGIGPYRYTETKQRLAPVLGLEGYKAIAACMQAEGIRLPAFAIGGIEDADIPLIRDCGIGGIAVSGSLIRKIKKEGHHHHHH | soluble |
| MSLSVFDLFKIGIGPSSSHTVGPMRAAARFAEGLRREGLLEATASIKVELYGSLGATGKGHGSDKAVLLGLEGEQPDTVDTAAIPARLDAIRSSGELRLLGERPIRFVEKEHLALIRKPLAYHPNGMIFRAFDAAGLQVRSREYYSVGGGFVVDDEAAGLDRIVEDRTPLAFPFKTARQLLDHCAREGLSISQLMAENEKAWRPAEETRTGLLRIWQVMQDCVEAGCRNEGIMPGGLKVRRRAAALHRQLCQRPEAGLRDALSVLDWVNLYALAVNEENASGGRVVTAPTNGAAGIIPAVLHYYARFIPGADDDGVVRFLLTAAAIGILYKENASISGAEVGCQGEVGVACSMAAGALCEVLGGSVQQVENAAEIGMEHNLGLTCDPVGGLVQVPCIERNAMASVKAINAARMALRGDGQHFISLDKVIRTMRQTGADMKSKYKETARGGLAVNIIEC | not soluble |
| MGSDKIHHHHHHMTDDIYFAPLLPWQHGLWSQLTMRVLAQKQSLPHALLAAGMQGMGKRAFVWRLVAWLLCRARDEHPLGACGHCESCQWLRSGTHPSLQALPLISLPISADNAHTQEVASGTAKDKKTTKAASNGSLKIKVDEIRALQPFIYQGGQGMRICVLDHAEQMTIAAANALLKTLEEPQAQVHLFLISDAPAQLLPTIKSRVQQLSLQTIDPAIAVDYVTKVLGSTVHREALGTDVIEQLIQLANGAPLAAVALAQAPWYSKRALWLTTWQALRSGKRSSVAASDYWQIHLGIAEFIRLSELMVIDIRRVGLGFEAQQKDINFSTTLNGYQPIDNELEAFAHSLQQTKIALQQNVQEKFAYDKLMQELACL | not soluble |
| MGHHHHHHSHMTRVKLQDGVHIIKETKEEVTPEQLKLMRTQDVKYIEMKRVAEAKKIERLKSELHLLDFQGKQQNKHVFFFDTKKEVEQFDVATHLQTAPELVDRVFNRPRIETLQKEKVKGVTNQTGLKRIAKERQKQYNCLTQRIEREKKLFVIAQKIQTRKDLMDKTQKVKVKKETVNFPAIYKFQSRRKR | not soluble |
| MSNQDYTGVRVEGARKLRSTLKKAGIDVRDDMKQAHKDAASIVSRRAAQITPVGPGSRRHKPGQLKASVRPAGTQTAAIVRAGKKRVPYAGPIQWGWHKRKIKPTFFLTRAASDTEPAWLKGYEKKFNQILDSIEGK | not soluble |
| SESQTLDKVYQMKSKPRGYCLIINNHNFAKAREKVPKLHSIRDRNGTHLDAGALTTTFEELHFEIKPHDDCTVEQIYEILKIYQLMDHSNMDCFICCILSHGDKGIIYGTDGQEAPIYELTSQFTGLKCPSLAGKPKVFFIQACQGDNYQKGIPVETASEEQPYLEMALSSPQTRYIPDEADFLLGMATVNNCVSYRNPAEGTWYIQSLCQSLRERCPRGDDILTILTEVNYEVSNKDDKKNMGKQMPQPTFTLRKKLVFPSDVEHHHHHH | soluble |
| MTTLKLDTLSDRIKAHKNALVHIVKPPVCTERAQHYTEMYQQHLDKPIPVRRALALAHHLANRTIWIKHDELIIGNQASEVRAAPIFPEYTVSWIEKEIDDLADRPGAGFAVSEENKRVLHEVCPWWRGQTVQDRCYGMFTDEQKGLLATGIIKAEGNMTSGDAHLAVNFPLLLEKGLDGLREEVAERRSRINLTVLEDLHGEQFLKAIDIVLVAVSEHIERFAALAREMAATETRESRRDELLAMAENCDLIAHQPPQTFWQALQLCYFIQLILQIESNGHSVSFGRMDQYLYPYYRRDVELNQTLDREHAIEMLHSCWLKLLEVNKIRSGSHSKASAGSPLYQNVTIGGQNLVDGQPMDAVNPLSYAILESCGRLRSTQPNLSVRYHAGMSNDFLDACVQVIRCGFGMPAFNNDEIVIPEFIKLGIEPQDAYDYAAIGCIETAVGGKWGYRCTGMSFINFARVMLAALEGGHDATSGKVFLPQEKALSAGNFNNFDEVMDAWDTQIRYYTRKSIEIEYVVDTMLEENVHDILCSALVDDCIERAKSIKQGGAKYDWVSGLQVGIANLGNSLAAVKKLVFEQGAIGQQQLAAALADDFDGLTHEQLRQRLINGAPKYGNDDDTVDTLLARAYQTYIDELKQYHNPRYGRGPVGGNYYAGTSSISANVPFGAQTMATPDGRKAHTPLAEGASPASGTDHLGPTAVIGSVGKLPTAAILGGVLLNQKLNPATLENESDKQKLMILLRTFFEVHKGWHIQYNIVSRETLLDAKKHPDQYRDLVVRVAGYSAFFTALSPDAQDDIIARTEHML | soluble |
| GMLESVRKEWLEIMDRELLEKARSLINANYISTTLSTVDRNYEVNIAVISVLEMIGDDTIICARFGADKTYANLKETGKGVFMVLLTDNDKSKDGIRVYVELSADLQEGEYFDRIKKRLDNTTYKNFPLKNCLVFKIVKILPVSLLRK | soluble |
| MSRPAASLGLMRMIEAVPDRLDGSPRQLRRFWSDEFKETAVEQACQPGVNMSAVARQIGILPSQLYRWRRELLASDKPGEAPAAVDPQSVAPDANPVVEIVIDGIVVRADRHIEEAHLQRVIRAVRSALEHHHHHH | soluble |
| HMRQRHILFANVQGHGHVYPSLGLVSELARRGHRITYVTTPLFADEVKAAGAEVVLYKSEFDTFHVPEVVKQEDAETQLHLVYVRENVAILRAAEEALGDNPPDLVVYDVFPFIAGRLLAARWDRPAVRLTGGFAANEHYSLFKELWKSNGQRHPADVEAVHSVLVDLLGKYGVDTPVKEYWDEIEGLTIVFLPKSFQPFAETFDERFAFVGPTLTGRDGQPGWQPPRPDAPVLLVSLGNQFNEHPEFFRACAQAFADTPWHVVMAIGGFLDPAVLGPLPPNVEAHQWIPFHSVLAHARACLTHGTTGAVLEAFAAGVPLVLVPHFATEAAPSAERVIELGLGSVLRPDQLEPASIREAVERLAADSAVRERVRRMQRDILSSGGPARAADEVEAYLGRVAP | soluble |
| MGSDKIHHHHHHMTNKNYLLYVDNEKYVLRLPGVMTSNLISRHYEMNNSILMSQAEFNVETIYFNADNGIKITKFLEKGINFNHNNIHQYEYLFLISKELYKLHHSDIQFNNEFNVFETFQQYFDLLKDKNGFFCFNKNIPLIYEFFIKISKNNSFYNIKCPCHNDLVPENILLKNNKLFFIDWEYSGMNAPLFDVAAFFLESRIPKEKQKYFLAHYDHHLDFEKSRMEILFHQFTQDVLWFLWTLIKEENNETFENYASIRINRAYELMKDLVKNEVI | not soluble |
| MSLTDRIFINAVDAGGQPIHLVVRDGRFIAIGADCAAAPGAETIDLDGRVVLPGFVDGHIHLDKSFVGDRWVPHEPVGTLRERLAVEKRQLAAAPPIVERANALIAQAAAFGTVAMRSHVDVDATTGLSNLQAVMAAREQWRGIVDIELVAFPQAGVVTCPGTAEILDVAVREGADVVGGIDPTTLDGDADGQLDIVFGIAEKRGAKIDIHLHEPGETGIAQLLRIAARTRAAGLGGRVNVSHAYALGQVSDGDVQRTAAALAEAGVSILTNAPGDCAFPPVQALRDAGVHVFAGNDNIRDAWWPYGNGDMLQRAMMVGYRSGFYTDEALGIALDMATHAGARVIGKDNYGIAVGRDATFVAVRAPNAAAAVAGVPAERWVFRRGESDTGAPFAPALRFTREGHHHHHH | soluble |
| GSSHHHHHHSSGLVPRGSHMRIVFDIGGSVLVPENPDIDFIKEIAYQLTKVSEDHEVAVVVGGGKLARKYIEVAEKFNSSETFKDFIGIQITRANAMLLIAALREKAYPVVVEDFWEAWKAVQLKKIPVMGGTHPGHTTDAVAALLAEFLKADLLVVITNVDGVYTADPKKDPTAKKIKKMKPEELLEIVGKGIEKAGSSSVIDPLAAKIIARSGIKTIVIGKEDAKDLFRVIKGDHNGTTIEP | soluble |
| HHHHHHGSAQLPSPTNGKKWEKVEQLSDEFDGNSIDTNKWYDYHPFWEGRAPSNFKKGDAFVSDGFLNLRSTLRKEPSSVQDPFKDIWVDAAAAVSKTKAQPGYYYEARFMASSLSMTSSFWFRVGQFSSIDVIEHIGDPSKENRQDDLPYQYHVNTHYYGKHAGLQPLGTEYKMPGRGRDNFYTYGFWWKSPNELLFYFNGKQVMRIVPRVPLDEELRMIFDTEVFPFATAGVANIGLPKPENLRDNSKNTMKVDWVRVYKLVDGTA | soluble |
| MLAYPHLFTPLDLGFTTLKNRILMGSMHTGLEELPDGPQRLAAFYAERAAGGVGLIVTGGIAPNMKGGVYQGASVLNDAAQIPHHQVVTEAVHQAGGKIALQILHAGRYSYQKHPVAPSALQAPINPFVPQALSHEEILQTIADFAHCAQLAKQAGYDGVEIMGSEGYLINQFLTARTNQRDDEWGGDFTHRMRFAVEIVRAVRQATGHDFILIYRLSMLDLVEEGSNWVEIEQLAQAVEQAGATVINTGIGWHEARIPTIATMVPRAGFSWVTRKLMGKVNIPLITTNRINDPAVAEQVLADGCADMVSMARPFLADAAFVQKAAQGRADEINTCIGCNQACLDQIFDGKLTSCLVNPRACRETEMPELPTDAPKRLAVVGAGPAGLAFAVTAARRGHQVTLFDAAAEIGGQFNIAKQIPGKEEFYETLRYFRRQLVLNGVTLQLNTLVQVKQLAEFDEVILACGIQPRLPCINGIDHPKVLTYLDVLRDKKPVGQRVAIIGAGGIGFDTAEYLSQSGDSPRFDSTAFSTEWGIDQDLAHRGGLSPAGAKVPPSPRQIFLLQRKASKVGEGLGKTTGWIHRTSLAMRGVKMLNSVSYEAIDDKGLHIIRAEQACCLPVDTIIICAGQEPRRELHQPLLDMGKTVYLIGGADKAVELDARRAIDQGTRLALAI | not soluble |
| MHHHHHHSSGVDLGTENLYFQSNAMKIDYLTLFPEMFDGVLNHSIMKRAQENNKLQINTVNFRDYAINKHNQVDDYPYGGGQGMVLKPEPVFNAMEDLDVTEQARVILMCPQGEPFSHQKAVELSKADHIVFICGHYEGYDERIRTHLVTDEISMGDYVLTGGELPAMTMTDAIVRLIPGVLGNEQSHQDDSFSDGLLEFPQYTRPREFKGLTVPDVLLSGNHANIDAWRHEQKLIRTYNKRPDLIEKYPLTNADKQILERYKIGLKKG | soluble |
| MDLYAVWGNPIAQSKSPLIQNKLAAQTHQTMEYIAKLGDLDAFEQQLLAFFEEGAKGCNITSPFKERAYQLADEYSQRAKLAEACNTLKKLDDGKLYADNTDGIGLVTDLQRLNWLRPNQHVLILGAGGATKGVLLPLLQAQQNIVLANRTFSKTKELAERFQPYGNIQAVSMDSIPLQTYDLVINATSAGLSGGTASVDAEILKLGSAFYDMQYAKGTDTPFIALCKSLGLTNVSDGFGMLVAQAAHSFHLWRGVMPDFVSVYEQLKKAMLLEHHHHHH | soluble |
| MSLNVNFFVTCIGDALKSRMARDSVLLLEKLGCRVNFPEKQGCCGQPAINSGYIKEAIPGMKNLIAALEDNDDPIISPAGSCTYAVKSYPTYLADEPEWASRAEKVAARMQDLTSFIVNTLGVVDVGASLQGRAVYHPSCSLARKLGVKDEPLTLLKNVRGLELLTFAEQDTCCGFGGTFSVKMAEISGEMVKEKVAHLMEVRPEYLIGADVSCLLNISGRLQREGQKVKVMHIAEVLMSREGHHHHHH | not soluble |
